We go through one substance from publication PMC9915066.

This test deals with SpyTag-fused glucose dehydrogenase V149C/G190C (Streptococcus pyogenes | Aspergillus flavus).

CYTc-SpyCatcher: the Imax^app (nA): direct electron transfer current of the complex-immobilized gold electrode on successive glucose addition, chronoamperometry at +400 mV vs. Ag/AgCl; ST-GDH alone hardly gave a response was determined as 55 nA.
